Results on five molecules are retold here after patent US11224662B2, “Methods and therapeutics comprising ligand-targeted ELPs” (priority 2012, dated 2022).

Data set [1] is described as follows: Temperature-dependent optical density (turbidity) of ELP fusion peptides. The data set is classed as physicochemical. As to conditions: for phase transition behaviour in optical density over temperature gradient: monoblock knob-ELPs, single increase in optical density; for Critical aggregation temperature: optical density at 350 nm by UV-Vis spectrophotometer. The method, then: (§1) To explore the temperature-dependent phase behavior of the ELPs, optical density and hydrodynamic radius were observed over a range of temperatures. Knob-S96, S48148 and knob-S48148 were diluted to 25 μM in PBS on ice and the absorbance at 350 nm was monitored with a DU800 UV-Vis spectrophotometer (Beckman Coulter, Brea, Calif.) at a temperature gradient of 1° C./minute. […] Then 90 μL sample of was transferred into a 384 well microplate and covered with 20 μL mineral oil. The microplate and mineral oil were pre-chilled at 4° C. at least for 1 hour. The microplate was centrifuged at 4° C. to remove air bubbles from samples before and after addition of mineral oil. Then the sample was measured in a DynaPro plate reader (Wyatt Inc., Santa Barbara, Calif.) at temperature intervals of 1° C. The resulting hydrodynamic radii were collected and analyzed by Dynamics (Wyatt Inc., Santa Barbara, Calif.).

Data set [2] in a line: Dynamic light scattering of ELP nanoparticles. The data set is classed as physicochemical. As to conditions: for formation of nanoparticles: ELP without knob, S96 and I96 data not shown; for Hydrodynamic radius (nm) at 37° C.: 25 μM in PBS. The method, then:
as §1

Data set [3] concerns transformed mouse hepatocytes. As to the kind of experiment: Live cell uptake of rhodamine-conjugated ELP/knob-ELP in hepatocytes. The data set is classed as cell-based. Conditions: 10 μM rhodamine-labeled, 30 minutes at 37° C., confocal microscopy, LYSOTRACKER green. The method, then: To track cellular uptake, the ELPs S48148 and knob-S48148 were conjugated with a detectable label, NHS-Rhodamine (Thermo Fisher Scientific Inc, Rockford, Ill.) via covalent modification of primary amines at the amino end of the peptide. For S48148, the only available amine is at the amino terminus; however, knob-S48148 has an additional 11 lysine residues that may be sites of modification. The conjugation was performed in 100 mM borate buffer for 2 hours at 4° C., and the conjugated ELP was separated by size exclusion chromatography on a PD10 desalting column (GE Healthcare, Piscataway, N.J.).
To observe uptake into mouse hepatocytes, cells were cultured on 35 mm glass coverslip-bottomed dishes with medium [(DMEM (4.5 g/L) containing 10% fetal bovine serum, g/ml insulin, and 0.02 [μg/ml epidermal growth factor]. Uptake studies were conducted when hepatocytes reached 70% confluence. After washing with warm fresh medium, hepatocytes were cultured in medium containing 10 μM of either S48148 or knob-S48148 conjugated with rhodamine, and 75 nM LYSOTRACKER® green. After 30 minutes incubation at 37° C., the cells were rinsed with warm fresh medium to remove the free knob-ELP/ELP in the medium. Next cells were incubated with 75 nM LYSOTRACKER® green in a 37° C. incubation chamber. […]

B1: knob-(VPGIG)96Y (SEQ ID. NO: 9) (protein)
chain: VPGIGVPGIGVPGIGVPGIGVPGIGVPGIGVPGIGVPGIGVPGIGVPGIGVPGIGVPGIGVPGIGVPGIGVPGIGVPGIGVPGIGVPGIGVPGIGVPGIGVPGIGVPGIGVPGIGVPGIGVPGIGVPGIGVPGIGVPGIGVPGIGVPGIGVPGIGVPGIGVPGIGVPGIGVPGIGVPGIGVPGIGVPGIGVPGIGVPGIGVPGIGVPGIGVPGIGVPGIGVPGIGVPGIGVPGIGVPGIGVPGIGVPGIGVPGIGVPGIGVPGIGVPGIGVPGIGVPGIGVPGIGVPGIGVPGIGVPGIGVPGIGVPGIGVPGIGVPGIGVPGIGVPGIGVPGIGVPGIGVPGIGVPGIGVPGIGVPGIGVPGIGVPGIGVPGIGVPGIGVPGIGVPGIGVPGIGVPGIGVPGIGVPGIGVPGIGVPGIGVPGIGVPGIGVPGIGVPGIGVPGIGVPGIGVPGIGVPGIGVPGIGVPGIGVPGIGVPGIGY
Regarding B1, in data set [1], the “phase transition behaviour in optical density over temperature gradient” value is listed as “phase-separates near room temperature”.

B2: (VPGSG)96 (SEQ ID. NO: 13) (protein)
chain: VPGSGVPGSGVPGSGVPGSGVPGSGVPGSGVPGSGVPGSGVPGSGVPGSGVPGSGVPGSGVPGSGVPGSGVPGSGVPGSGVPGSGVPGSGVPGSGVPGSGVPGSGVPGSGVPGSGVPGSGVPGSGVPGSGVPGSGVPGSGVPGSGVPGSGVPGSGVPGSGVPGSGVPGSGVPGSGVPGSGVPGSGVPGSGVPGSGVPGSGVPGSGVPGSGVPGSGVPGSGVPGSGVPGSGVPGSGVPGSGVPGSGVPGSGVPGSGVPGSGVPGSGVPGSGVPGSGVPGSGVPGSGVPGSGVPGSGVPGSGVPGSGVPGSGVPGSGVPGSGVPGSGVPGSGVPGSGVPGSGVPGSGVPGSGVPGSGVPGSGVPGSGVPGSGVPGSGVPGSGVPGSGVPGSGVPGSGVPGSGVPGSGVPGSGVPGSGVPGSGVPGSGVPGSGVPGSGVPGSGVPGSGVPGSGVPGSGVPGSGVPGSGVPGSGVPGSGVPGSG
Turning to B2, the formation of nanoparticles result in data set [2] is reported as “do not form nanoparticles”.

B3: knob-(VPGSG)96Y (SEQ ID. NO: 8) (protein)
chain: VPGSGVPGSGVPGSGVPGSGVPGSGVPGSGVPGSGVPGSGVPGSGVPGSGVPGSGVPGSGVPGSGVPGSGVPGSGVPGSGVPGSGVPGSGVPGSGVPGSGVPGSGVPGSGVPGSGVPGSGVPGSGVPGSGVPGSGVPGSGVPGSGVPGSGVPGSGVPGSGVPGSGVPGSGVPGSGVPGSGVPGSGVPGSGVPGSGVPGSGVPGSGVPGSGVPGSGVPGSGVPGSGVPGSGVPGSGVPGSGVPGSGVPGSGVPGSGVPGSGVPGSGVPGSGVPGSGVPGSGVPGSGVPGSGVPGSGVPGSGVPGSGVPGSGVPGSGVPGSGVPGSGVPGSGVPGSGVPGSGVPGSGVPGSGVPGSGVPGSGVPGSGVPGSGVPGSGVPGSGVPGSGVPGSGVPGSGVPGSGVPGSGVPGSGVPGSGVPGSGVPGSGVPGSGVPGSGVPGSGVPGSGVPGSGVPGSGVPGSGVPGSGVPGSGVPGSGVPGSGY
Take B3: the “phase transition behaviour in optical density over temperature gradient” value in data set [1] was “well above physiological conditions”. Also, the Critical aggregation temperature in data set [1] (25 μM in PBS) stood at 68.2 °C. In addition, in data set [2] (dynamic light scattering), the “Hydrodynamic radius (nm) at 37° C.” value is recorded as 5.3 nm.

B4: (VPGIG)96 (SEQ ID. NO: 14) (protein)
chain: VPGIGVPGIGVPGIGVPGIGVPGIGVPGIGVPGIGVPGIGVPGIGVPGIGVPGIGVPGIGVPGIGVPGIGVPGIGVPGIGVPGIGVPGIGVPGIGVPGIGVPGIGVPGIGVPGIGVPGIGVPGIGVPGIGVPGIGVPGIGVPGIGVPGIGVPGIGVPGIGVPGIGVPGIGVPGIGVPGIGVPGIGVPGIGVPGIGVPGIGVPGIGVPGIGVPGIGVPGIGVPGIGVPGIGVPGIGVPGIGVPGIGVPGIGVPGIGVPGIGVPGIGVPGIGVPGIGVPGIGVPGIGVPGIGVPGIGVPGIGVPGIGVPGIGVPGIGVPGIGVPGIGVPGIGVPGIGVPGIGVPGIGVPGIGVPGIGVPGIGVPGIGVPGIGVPGIGVPGIGVPGIGVPGIGVPGIGVPGIGVPGIGVPGIGVPGIGVPGIGVPGIGVPGIGVPGIGVPGIGVPGIGVPGIGVPGIGVPGIGVPGIGVPGIGVPGIGVPGIG
As for B4, the formation of nanoparticles entry in data set [2] is given as “do not form nanoparticles”.

B5: G(VPGSG)48(VPGIG)48Y (SEQ ID. NO: 10) (protein)
chain: GVPGSGVPGSGVPGSGVPGSGVPGSGVPGSGVPGSGVPGSGVPGSGVPGSGVPGSGVPGSGVPGSGVPGSGVPGSGVPGSGVPGSGVPGSGVPGSGVPGSGVPGSGVPGSGVPGSGVPGSGVPGSGVPGSGVPGSGVPGSGVPGSGVPGSGVPGSGVPGSGVPGSGVPGSGVPGSGVPGSGVPGSGVPGSGVPGSGVPGSGVPGSGVPGSGVPGSGVPGSGVPGSGVPGSGVPGSGVPGSGVPGIGVPGIGVPGIGVPGIGVPGIGVPGIGVPGIGVPGIGVPGIGVPGIGVPGIGVPGIGVPGIGVPGIGVPGIGVPGIGVPGIGVPGIGVPGIGVPGIGVPGIGVPGIGVPGIGVPGIGVPGIGVPGIGVPGIGVPGIGVPGIGVPGIGVPGIGVPGIGVPGIGVPGIGVPGIGVPGIGVPGIGVPGIGVPGIGVPGIGVPGIGVPGIGVPGIGVPGIGVPGIGVPGIGVPGIGVPGIGY
Regarding B5, in data set [3], the “cellular uptake / fluorescence localisation” value is recorded as “slightly more intense fluorescence on the cell surface”. Further, in data set [1] (first phase transition, optical density, 25 μM in PBS), the “Transition Temperature T1” value was determined as 26.5 °C. Further, the Critical aggregation temperature in data set [1] (25 μM in PBS) is 26.5 °C. In addition, in data set [1] (second phase transition, optical density, 25 μM in PBS), the “Transition Temperature T2” value stood at 75 °C. The “size by dynamic light scattering (BSA; unimers of the ELPs)” value in data set [2] (BSA stable from 10 to 37° C., ELPs as unimers below assembly temperature) is given as “around 4 nm”. In data set [2], the formation of nanoparticles entry is listed as “form nanoparticles at physiological temperatures”. Besides, in data set [2] (dynamic light scattering), the “critical nanoparticle temperature (CNT)” value stood at 26.5 °C and the “Hydrodynamic radius (nm) at 37° C.” value is 23.7 nm. For the same molecule, in data set [2] (dynamic light scattering, self-assembled nanoparticles), the “hydrodynamic diameter of nanoparticles” value is listed as “around 40 nm”.
